This data set in a line: label from the status in PepcDB records.

Consider “MFANWLLVSVSIGYIGLLFLIAHLGGKYRNKLEAKQQTIIYALSLGVYCTSWGFLGTTAQAANHSFTFLSVYLAPIVLFVFAWPFIQRIIKTSLKLKITSIADLLSARFGKSQTLAIIITLVALIGTMPYIALQLKAIVNSYQILQETQDLPIWQIGLVVSIILAVFTIIFGIRTIDITERHPGVMIAIAFESLVKLIAFLLVGLFVSFIIYDSPMDIWELSKDQFDIEKQFEFSNLFALFGMLIIVMSAFLCLPRQFQVMFVEIKDKKTSGMARWVLPVYLLIFGFFAAVLGLAGNLNYGSSLAADAYVLFLPALDGQVWLSLFAFLGAVSAASSMVIVSTIALSTMLSNEIVFPVMFNFSRQKQQDFNHFQLQLLFIRKTLVLLVIFLSYGLLLVSPPDALSSLGEVAFGAIAQIGPALFVAFYWRRATLAGVLAGIICGFTIWTVFNLIPQLGIYAHPLENTDLPKTTVITLIGLLINVIALWLVSLGTRQSIREQMQSEFFYTDRKKIKWSLPSQPKVDIVELELLVARFIGEEKATKCFEKFHSMNQTKDNKKFNEAILFHAENTLARVLGSASAKLVTSLAISSRGMAFDQVAKLVEDNSTQQLEFSRTVLQSAIENVSEGISVIDSELKLVAWNKQYLDIFSYPEAFIYIGCPISQLIHFNLSQQGYFAKDIDLRVKKRIQYIMEGSRHNTEYKLKNGKNIRIEGSPIPGGGFVMIFSDITQYRQTEEVLKEENTDLESRVQFRTAELEQANKELALANHELIQAQTKAEQAHVKKSQYLKACSHDLLQPLSAARLFSSAISLSPRVSNEEREQIKKIDNSLEIANSLLLDLNEIARIESGNITPTIEPIEIKELFTMLANEFNALTDEYHVEFHCKMSKTYVASDITLLARIVQNFLSNAFRYAHRCDKKNQSKVLLGCRRQGNEISIQVFDNGPGIPIDKQQQVFDQFTQLNNSNVMGPKGLGLGLNIAQSLANILEHKIDLKSKPGHGCLFSVNAPMTLAPAAKEQTLPPASMSLHGVGVLCIDNEPAILDGMSKLLSAWQCQVFTAVDAQQARELYAKHEDEIDILLVDYQLDGCQDDNTIMATDMLISERNDSSCSIDPVNGIGLIKQLRAMSPYALPAILITATTGENLMALTKQHNIGYLRKIIRPLALRALMSSLLTEELAKNYSQNNT”, for which the protein production entry is given as “failed”.
For “MFAVPYHQHLWRIKLALIAQNHLQLIIEVGIILYAAMVFILNLAPMSLSMVLFICIVLGIGFNIIFGLDVVALFMSFGQSEFTHPFGPIALLVTVSSLAALAIMEESGVDVRGLRGFVYLLMAGITLFGGLMHRSFLLLWLLGLFMGLFIISKSMRQRSLITVKRVAGFALIAVAGFGGLELISRVLGMTVLSPLLRIERLETFSLPSMKLVIKNTTLLGHNPMSSYWGELSSGFADGYISLPLQLILFFGLPFPVFYGILVNKKDVIDYMVPGVFGWAYDFGYITMFFLLIWCVGIIIMGLRMLSIYRERRENGSRSYLGREVLLTGALAAFMSQAIIGLFVINRTINGTALLTFIFLSSLIFANSVGLKE”, the protein production entry was “failed”.
Take “MFDFSIVTNWIHEMLLSVMPEGWAIFIECIAVGVCIVALYAILAIVLIYMERKVCGFFQCRLGPNRVGKWGSIQVICDVLKMLTKEIFTPKDADRFLYNLAPFMVIIASFLTFACIPFNKGAEILNFNVGVFFLLAASSIGVVGILLAGWGSNNKFSLIGAMRSGAQIISYELSVGMSIMTMVVLMGTMQFSEIVEGQADGWFIFKGHIPAVIAFIIYLIAGNAECNRGPFDLPEAESELTAGYHTEYSGMHFGFFYLAEYLNLFIVASVAATIFLGGWMPLHIIGLDGFNAVMDYIPGFIWFFAKAFFVVFLLMWIKWTFPRLRIDQILNLEWKYLVPISMVNLLLMACCVAFGFHF”: the protein production entry is on record as “failed”.
For the sequence “MFDKIHYYYFNANYEKCLNLSEQFLKESPKFALEFATLSSYKLSLFQKALYYAQELFSLNPTSFNGLMLAKSYIENLRLDEALNLLQTLLTRKDDLEDELKLELAFIYKLSNKLEESEQIFKELLSKDMYNLNLWKNYAEIYFKHDFTKALNAHEHLCHFMQDLIDKLQKGIIAEQTNLNLVKLEDRLHSKTKENLTISKIEDFLTHQILPQKAYLLFKLFRISDSLELFQSLQEANQHHAQFWQNYAKVLEFNSNYQEAYHAYKKCLSLDSHATYQFDLAYLLMRMGVDDNFEEGKKYYESRLFYAHNETFSTYHYNESLKAFNKFGVDAFKNKEVLVFCEQGFGDTIMYARCLEKLCKIASKVLFAPQSAMYEMFKNQIKFLNQNDDIFKNVKVLKNLPTNFDYAIPICSLPFFIDIKLDEILRLKTPILPQKKPHNQRKKLGIFYATPNAENSDLLRNVKFEFLFDVLKDLDYEIISFQMQLKEELPKVIEDRSKLIKNWNDTLNYLYDIDCMLSIDSAIAHLSLAMDIPTIVLLHPRFDWRWGKFENPKSYFWPKAKCFIIKEQEETKRNLQKLIKDILN”, the protein production result was “failed”.
As for “MFDTKIAVILRDDLAVWQKLNVTAFLMSGIVAQTGEIIGEPYRDGAGNVYNPLSIQPIVVMATDQEALRKIHQRSLERDITTSLYIEEMFATGHDAANRQVFSHFSPDTAKVVGMALRADRKIVDKITKGAKLHA”, the protein production entry was “not failed”.
Take “MFEENEKEQLLYYERNKESEKCQKVWESIICKGLGYSKEEIRRDVERSRREKERLLSILYGSVFTGPKYLLYSKKWRGKTLNEIINEDREKNLNKNNFKNMDLDSTYFCELSFGYMDTAEENDDKNKKEITKQMEKKNDKVPNIRKGGNTNNSQNKRKTYHGEKNANTTNKDLDEFYSKLNYLEKRSYKNRYRNDNNNKKNNNNNNNNNNSNSNNNYYYYYSNGRSSYTNELSNEKNKYNEENSDEGNVIKYKYLPTGVFYSRVSKSFIANWIDDKTKKQVKIPYKISEYGIEKCMILAILSRNLRLSNLSNVLKYYDELTDSQKEQMLHAIRTTQKSEKLFEDIINRNGNKKNENNIINNYSNIHNDTSINNNNNNNNNNNNNIGNTIGTQHKNKNKQNANDQKNIPMKKKLIEKKKVKQSYVNEEKLPTGVYFYQGSYVANWWETNQKKQFKVPFKISEYGIARAKNLAIISRLIRSSSIPDINLILTQMENDHNLSDMDYTAISELAYKYIENMAKKE”: the protein production entry is listed as “failed”.
As to “MFEFILQLSLGILAVSTFLYVLRVIKGPSIPDRVVALDAIGINLIGITALVSILLNTTAYLEVILLIGILAFIGTVAFSKFLEKGEIIENDRSR”, the protein production entry is “failed”.
Take “MFEGQPKGLYALALANTGERFGYYTMLAIFTLFLQAKFGYTAAETSTIFGCFLAAVYFIPFFGGILADKFGYGKMVTMGIVVMFIGYALLAIPTSDNSGKIMMFGALALIACGTGLFKGNLQVMVGNLYDAPEYSSKRDTAFSIFYMAINIGAMYAPTAATKVTNYMLGKAGLSYVPQIPSLAHQYLDGTITPANQATLESLQAAQNFTGDIATFCTTYIDKLSEAYNYGFGVACVSLIISMLIYVAFRSTFKHADYNSKQAKPANVVEEKLTPEQTKQRIVALLLVFAVVIFFWMAFHQNGLTLTFFARDYTAQEVTGLDRLGFNIVNLTFLLIVIYGLFSLFQGKTGKSKTIAGVVVMVALLCLGWSYTSMDPTINILPQIFQQFNPFFVIALTPVSLAVFGYLARKGKEPSAPRKIGIGMMIAVCGFLIMAIGSIGLPTPDALAASGIEKDALVSPNWLISTYLVLTFAELFLSPMGISFVSKVAPPKYKGMMMGGWFAATAIGNYLVAIIGYLWGGMQLWMVWSVLIVCCLLAALFIFSIMKKLEKVA”: the protein production entry was “failed”.
In the case of “MFFLRTTKRMESYSQNSNKLDFQHEARILNSIWLITALGLVATAGLAWGAKYLEITATKYDSPQMYVAIGLLLLSMYGLSKDINKINTAIAGVIYLFLISLVAIVVASLAPVSAIIVVFSTAGSMFLISMLAGLLFKFDPGSHRFIIMMTLTGLALVIIVNATLMSERPIWVISCLMIVLWSGIISHGRNKLLELTGKSHSEELWSSVRCAFIGALTLYYYFIGFFGILAAIAITLVWQRHTRFFH”, the protein production result is recorded as “failed”.
As to “MFGEQLLKNPLIEFCDSVCRGCGQVMFQNNTVTGLLFFAGIFYNSTTLGVCAVLGTAASTLTAQLLGVDKPLVRAGLFGFNGTLAGIALPFFFNYEPAMLGYVALNGAFTTIIMASLLNFLGKWGVPALTAPFVLATWLLMFGVYKLSLFHPGALIAPALPSVAGLADMGTVTGRTFMEGLFKGVGEVMFQDNIVTGVIFVVAILVNSRISALFAVIGSLVGLCTALIMHSPETPVRLGLYGFNSVLCGIAMGGIFFYLNIRTFLYALGCMVLGAIATGAFSVLLSPIGMPALTWPFIVVTWLFLFAGSMFRNIAQVPTEKAGTPEDNLRSLAIGSR”, the protein production entry was “not failed”.
